These results are taken from patent US9187525B2, “Methods of treating ophthalmic diseases using NPR-B agonists” (Shire Orphan Therapies GmbH, dated 2015).

Numbered stars: 1 amine (or outer) side, 2 acyl side, 3 side chain; on linkers, the order of the positions; unused ones are H or OH. Square brackets hold non-standard residues; d marks the D form. Ends that are not written are not given here. * marks the point of attachment. Pmy = (S)-para-methoxy-phenylalanine, COc1ccc(C[C@H](N[*:1])C(=O)[*:2])cc1; Pro(trans-4-NH2) = O=C([C@@H]1C[C@@H](N[*:3])CN1[*:1])[*:2]; 1381 = (S)-3,3-dimethylbutan-2-amine, C[C@H](N*)C(C)(C)C; Sni = (S)-nipecotic acid, O=C([C@H]1CCCN([*:1])C1)[*:2]; Phe(4-NO2) = N[C@@H](Cc1ccc([N+](=O)[O-])cc1)C(=O)O; Pro(trans-4-Ph) = O=C(O)[C@@H]1C[C@@H](c2ccccc2)CN1; NH((S)-tetralin-1-yl) = c1ccc2c(c1)CCC[C@@H]2N*; Phe(3,4-Cl2) = N[C@@H](Cc1ccc(Cl)c(Cl)c1)C(=O)O; Bmf = rac-2-amino-3-phenyl-butyric acid; Phe(4-F) = N[C@@H](Cc1ccc(F)cc1)C(=O)O; Pro(3S-OH) = O=C(O)[C@H]1NCC[C@@H]1O; cisHyp = O=C(O)[C@@H]1C[C@H](O)CN1; Hyp = O=C(O)[C@@H]1C[C@@H](O)CN1; NMeL = CN[C@@H](CC(C)C)C(=O)O; β3hK = NCCCC[C@H](N)CC(=O)O; ΔPro = O=C(O)[C@@H]1C=CCN1; Octanoyl = CCCCCCCC(=O)*; 2906 = cyclobutyl-amine; Ac5c = NC1(C(=O)O)CCCC1; Dap = NC[C@H](N)C(=O)O; Hexanoyl = CCCCCC(=O)*; Paf = not defined here; leu = not defined here; NHcHex = C1CCC(N*)CC1; Occ = octanoic acid

T1: natriuretic peptide receptor-B (human)
T1 chain: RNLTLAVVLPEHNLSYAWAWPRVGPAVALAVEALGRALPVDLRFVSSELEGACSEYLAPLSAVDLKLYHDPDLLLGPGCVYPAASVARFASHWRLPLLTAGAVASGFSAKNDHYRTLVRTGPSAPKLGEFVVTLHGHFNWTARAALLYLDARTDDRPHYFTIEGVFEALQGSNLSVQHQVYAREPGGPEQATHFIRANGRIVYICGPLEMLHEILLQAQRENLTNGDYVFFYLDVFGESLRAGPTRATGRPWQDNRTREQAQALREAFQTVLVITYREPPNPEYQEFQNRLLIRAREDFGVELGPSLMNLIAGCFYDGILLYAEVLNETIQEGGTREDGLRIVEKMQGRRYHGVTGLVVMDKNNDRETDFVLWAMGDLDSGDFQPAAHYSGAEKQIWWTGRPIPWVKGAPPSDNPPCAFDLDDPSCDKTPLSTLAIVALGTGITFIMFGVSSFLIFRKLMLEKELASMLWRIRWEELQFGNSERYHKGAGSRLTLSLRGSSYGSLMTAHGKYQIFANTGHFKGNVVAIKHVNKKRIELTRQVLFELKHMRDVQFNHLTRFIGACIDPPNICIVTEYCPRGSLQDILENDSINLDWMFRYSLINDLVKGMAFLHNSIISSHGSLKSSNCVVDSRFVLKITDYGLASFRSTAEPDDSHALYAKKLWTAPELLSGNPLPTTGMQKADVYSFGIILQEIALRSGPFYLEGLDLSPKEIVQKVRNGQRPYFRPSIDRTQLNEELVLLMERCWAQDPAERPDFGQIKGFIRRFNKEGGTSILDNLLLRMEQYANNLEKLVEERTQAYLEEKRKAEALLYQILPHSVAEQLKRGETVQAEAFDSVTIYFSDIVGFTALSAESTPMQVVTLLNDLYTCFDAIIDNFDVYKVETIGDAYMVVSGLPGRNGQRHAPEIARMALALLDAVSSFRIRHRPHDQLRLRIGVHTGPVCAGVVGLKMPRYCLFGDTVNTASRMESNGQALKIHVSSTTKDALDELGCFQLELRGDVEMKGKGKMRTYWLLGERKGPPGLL

B1: JAL-1508 (peptide)
peptide: [Occ][Sni]FLL[Hyp][NMeL]DP[2906]
modifications: not fully specified (residue 4); printed as Occ-Sni-Phe-leu-Leu-Hyp-Nml-Asp-Pro-2906
B2: JAL-0656 (peptide)
peptide: XXFGLKLDRI
HELM: PEPTIDE1{[CCCCCC(=O)[*:2]].[O=C1[C@@H](N[*:1])CCCCN1CC(=O)[*:2]].F.G.L.K.L.D.R.I.[am]}$$$$V2.0
SMILES: CCCCCC(=O)N[C@H]1CCCCN(CC(=O)N[C@@H](Cc2ccccc2)C(=O)NCC(=O)N[C@@H](CC(C)C)C(=O)N[C@@H](CCCCN)C(=O)N[C@@H](CC(C)C)C(=O)N[C@@H](CC(=O)O)C(=O)N[C@@H](CCCNC(=N)N)C(=O)N[C@H](C(N)=O)[C@@H](C)CC)C1=O
B3: JAL-1494 (peptide)
peptide: Octanoyl-[Sni]X[leu]L[Hyp][NMeL]DRI-NH2
modifications: not fully specified (some residues); printed as Occ-Sni-Pmf-leu-Leu-Hyp-Nml-Asp-Arg-Ile-NH2
B4: JAL-1482 (peptide)
peptide: Octanoyl-AF[leu]L[Hyp][NMeL]D[Dap]I-NH2
modifications: not fully specified (some residues); printed as Occ-ala-Phe-leu-Leu-Hyp-Nml-Asp-Udp-Ile-NH2; reading uncertain
B5: JAL-1506 (peptide)
peptide: [Occ][Sni]FLL[Hyp][NMeL]DP[NH((S)-tetralin-1-yl)]
modifications: not fully specified (residue 4); printed as Occ-Sni-Phe-leu-Leu-Hyp-Nml-Asp-Pro-2118
B6: JAL-1496 (peptide)
peptide: [Occ][Sni][Phe(3,4-Cl2)]LL[Hyp][NMeL]DRI-NH2
modifications: not fully specified (residue 4); printed as Occ-Sni-Eaa-leu-Leu-Hyp-Nml-Asp-Arg-Ile-NH2
B7: JAL-1493 (peptide)
peptide: Octanoyl-[Sni]X[leu]L[Hyp][NMeL]DRI-NH2
modifications: not fully specified (some residues); printed as Occ-Sni-Pcf-leu-Leu-Hyp-Nml-Asp-Arg-Ile-NH2
B8: JAL-1509 (peptide)
peptide: [Occ][Sni]FLL[Hyp][NMeL]DP[1381]
modifications: not fully specified (residue 4); printed as Occ-Sni-Phe-leu-Leu-Hyp-Nml-Asp-Pro-1381
B9: JAL-1476 (peptide)
peptide: Octanoyl-AF[leu]L[Hyp][NMeL]D[cisHyp]I-NH2
modifications: not fully specified (some residues); printed as Occ-ala-Phe-leu-Leu-Hyp-Nml-Asp-Chy-Ile-NH2; reading uncertain
B10: JAL-1477 (peptide)
peptide: Octanoyl-AF[leu]L[Hyp][NMeL]D[Pro(3S-OH)]I-NH2
modifications: not fully specified (some residues); printed as Occ-ala-Phe-leu-Leu-Hyp-Nml-Asp-H3p-Ile-NH2; reading uncertain
B11: JAL-1483 (peptide)
peptide: Octanoyl-AF[leu]L[Hyp][NMeL]D[β3hK]I-NH2
modifications: not fully specified (some residues); printed as Occ-ala-Phe-leu-Leu-Hyp-Nml-Asp-Bhk-Ile-NH2; reading uncertain
B12: JAL-1479 (peptide)
peptide: Octanoyl-AF[leu]L[Hyp][NMeL]D[ΔPro]I-NH2
modifications: not fully specified (some residues); printed as Occ-ala-Phe-leu-Leu-Hyp-Nml-Asp-Dhp-Ile-NH2; reading uncertain
B13: JAL-1463 (peptide)
peptide: Octanoyl-[dA]FXL[Pro(trans-4-NH2)][NMeL]DRI-NH2
modifications: not fully specified (some residues); printed as Occ-ala-Phe-dap(1464)-Leu-Tap-Nml-Asp-Arg-Ile-NH2
B14: JAL-1475 (peptide)
peptide: Octanoyl-[Sni]F[leu]L[Hyp][NMeL]DPI-NHMe
modifications: reading uncertain; also: printed as Occ-Sni-Phe-leu-Leu-Hyp-Nml-Asp-Pro-Ile-(NH-CH3)
B15: JAL-0657 (peptide)
peptide: XXFGLKLDRI
HELM: PEPTIDE1{[CCCCCC(=O)[*:2]].[O=C([C@H]1CCC[C@@H](N[*:1])C1)[*:2]].F.G.L.K.L.D.R.I.[am]}$$$$V2.0
SMILES: CCCCCC(=O)N[C@@H]1CCC[C@H](C(=O)N[C@@H](Cc2ccccc2)C(=O)NCC(=O)N[C@@H](CC(C)C)C(=O)N[C@@H](CCCCN)C(=O)N[C@@H](CC(C)C)C(=O)N[C@@H](CC(=O)O)C(=O)N[C@@H](CCCNC(=N)N)C(=O)N[C@H](C(N)=O)[C@@H](C)CC)C1

The target of this test is T1, natriuretic peptide receptor-B. In words: cell-based or functional assay.
Take Octanoyl-[Sni]F[leu]L[Hyp][NMeL]DPI-OH (reading uncertain; also: printed as Occ-Sni-Phe-leu-Leu-Hyp-Nml-Asp-Pro-Ile-OH) [JAL-1474]: the “EC50 group, cGMP in GTM-3 cells” value was at most 15 µM. On to B1, for which the “EC50 group, cGMP in GTM-3 cells” value is at most 15 µM. Take B2: the “EC50 group, cGMP in GTM-3 cells” value is at most 15 µM. As for Octanoyl-[Sni]Y[leu]L[Hyp][NMeL]DRI-NH2 (reading uncertain; also: printed as Occ-Sni-Tyr-leu-Leu-Hyp-Nml-Asp-Arg-Ile-NH2) [JAL-1489], the “EC50 group, cGMP in GTM-3 cells” value is at most 15 µM. Consider Hexanoyl-[dA][dA]FGLKLDR[Ac5c]-NH2 [JAL-0692], for which the “EC50 group, cGMP in GTM-3 cells” value was at most 15 µM. On to B3, for which the “EC50 group, cGMP in GTM-3 cells” value is at most 1 µM.

With Octanoyl-[Sni][Phe(4-F)][leu]L[Hyp][NMeL]DRI-NH2 (reading uncertain; also: printed as Occ-Sni-Pff-leu-Leu-Hyp-Nml-Asp-Arg-Ile-NH2) [JAL-1487], the “EC50 group, cGMP in GTM-3 cells” value was at most 1 µM. The result for B4 reads at most 5 µM; that for B5, at most 5 µM; that for B6, at most 1 µM. The result for Octanoyl-[Sni][Bmf][leu]L[Hyp][NMeL]DRI-NH2 (reading uncertain; also: printed as Occ-Sni-Bmf-leu-Leu-Hyp-Nml-Asp-Arg-Ile-) [JAL-1490] reads at most 15 µM. Consider B7, for which the “EC50 group, cGMP in GTM-3 cells” value is at most 1 µM. Under Octanoyl-[Sni][Paf][leu]L[Hyp][NMeL]DRI-NH2 (reading uncertain; also: printed as Occ-Sni-Paf-leu-Leu-Hyp-Nml-Asp-Arg-Ile-NH2) [JAL-1492] stands at most 5 µM. Consider B8, for which the “EC50 group, cGMP in GTM-3 cells” value is at most 5 µM.

Take B9: the “EC50 group, cGMP in GTM-3 cells” value is at most 5 µM. The result for B10 reads at most 5 µM. The result for Octanoyl-[Sni][Pmy][leu]L[Hyp][NMeL]DRI-NH2 (reading uncertain; also: printed as Occ-Sni-Pmy-leu-Leu-Hyp-Nml-Asp-Arg-Ile-) [JAL-1488] reads at most 5 µM; that for B11, at most 5 µM. Consider Octanoyl-[Sni][Phe(4-NO2)][leu]L[Hyp][NMeL]DRI-NH2 (reading uncertain; also: printed as Occ-Sni-Nif-leu-Leu-Hyp-Nml-Asp-Arg-Ile-NH2) [JAL-1486], for which the “EC50 group, cGMP in GTM-3 cells” value was at most 5 µM. Under B12 stands at most 5 µM; under Octanoyl-[Sni][Pro(trans-4-Ph)][leu]L[Hyp][NMeL]DRI-NH2 (reading uncertain; also: printed as Occ-Sni-Eay-leu-Leu-Hyp-Nml-Asp-Arg-Ile-NH2) [JAL-1491], at most 5 µM. Under Octanoyl-[Sni]F[dL]L[Hyp][NMeL]DP[NHcHex] [JAL-1464] stands at most 5 µM.

Take B13: the “EC50 group, cGMP in GTM-3 cells” value was at most 1 µM.

As for B14, the “EC50 group, cGMP in GTM-3 cells” value is at most 5 µM. Under B15 stands at most 15 µM.
